Data taken from US20240124563A1 (NANJING ZAIMING PHARMACEUTICAL, published 2024).

What was measured:
[1] = biological target: T1, human MSLN-FL-his protein (human, UniProt Q13421 296-580); test: competitive ELISA on MSLN-FL-His; other antibody: NB148-46 (3.m5)
T1 construct: Made in HEK293E cells, purified on nickel column; also called hMSLN-FL-his; not shown: histidine tag

[2] = biological target: T2, human MSLN-R2-his protein (human, UniProt Q13421 391-486); test: ELISA, antibody 0.0001 nM
T2 construct: MSLN-R2 = Ser391-Asn486; also called hMSLN-R2-his; not shown: histidine tag

[3] = biological target: T3, human MSLN-R1-his protein (human, UniProt Q13421 296-390); test: ELISA, antibody 100 nM
T3 construct: MSLN-R1 = Glu296-Thr390; also called hMSLN-R1-his; not shown: histidine tag
T3 chain: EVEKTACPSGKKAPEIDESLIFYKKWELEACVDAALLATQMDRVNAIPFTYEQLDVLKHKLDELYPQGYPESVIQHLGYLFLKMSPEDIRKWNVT

[4] = biological target: T1, human MSLN-FL-his protein; test: competitive ELISA on MSLN-FL-His; other antibody: NB149-95 (3.m11)
[5] = biological target: T1, human MSLN-FL-his protein; test: competitive ELISA on MSLN-FL-His; other antibody: NB149-31 (3.m7)
[6] = biological target: T1, human MSLN-FL-his protein; test: competitive ELISA on MSLN-FL-His; other antibody: NB148-35 (3.m4)
[7] = biological target: T2, human MSLN-R2-his protein; test: ELISA, antibody 1 nM
[8] = biological target: T2, human MSLN-R2-his protein; test: ELISA, antibody 0.1 nM
[9] = biological target: T1, human MSLN-FL-his protein; test: competitive ELISA on MSLN-FL-His; other antibody: NB148-88 (3.m6)
[10] = biological target: T3, human MSLN-R1-his protein; test: ELISA, antibody 10 nM
[11] = biological target: T1, human MSLN-FL-his protein; test: competitive ELISA on MSLN-FL-His; other antibody: NB148-27 (3.m3)
[12] = biological target: T1, human MSLN-FL-his protein; test: competitive ELISA on MSLN-FL-His; other antibody: Tab142 (R1) (3.m16)

T2 sequence (Q13421 other isoform, or with tags, fused parts or gaps): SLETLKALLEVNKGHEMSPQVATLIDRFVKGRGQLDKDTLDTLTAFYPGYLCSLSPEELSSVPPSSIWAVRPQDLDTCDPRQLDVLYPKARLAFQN

inhibition rate [1]: 7%
OD450 nm [2]: 0.04
OD450 nm [3]: 0.08
inhibition rate [4]: -5%
inhibition rate [5]: -10%
inhibition rate [6]: 26%
OD450 nm [7]: 0.05
OD450 nm [8]: 0.04
inhibition rate [9]: 4%
OD450 nm [10]: 0.06
inhibition rate [11]: 1%
inhibition rate [12]: -9%
B1: Tab107 (YP3, hIgG1) (antibody, V domains shown)
VH: QEQLVESGGGLVQPGASLTLTCTASGIDFSRYYMCWVRQAPGKGLEGIACIYIGGSGSTYYASWAKGRFTISKASSTTVTLQMTSLTAADTATYFCARGTNLNYIFRLWGPGTLVTVSS
VL: DVVMTQTPSPVSAAVGGTVTIKCQASQSINNGLAWYQQKPGQPPRLLIYSASNLESGVPSRFKGSGSGTEFTLTISDLECDDAATYYCQCIWDGNSYVNAFGGGTEVVVRT
notes: also called YP3 human IgG1 antibody
